Residue numbers refer to the chain shown, from its start. Names and notes keep the numbering of the source.
What was measured:
[1] = molecular target: T1, wild type human Interleukin-4 (human, UniProt P05112 25-153); assay: cell-based or functional assay
T1 sequence (looked up): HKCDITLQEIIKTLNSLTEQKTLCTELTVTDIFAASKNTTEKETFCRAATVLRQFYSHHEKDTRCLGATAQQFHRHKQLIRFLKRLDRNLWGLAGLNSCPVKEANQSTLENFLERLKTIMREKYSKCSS

IL-4 receptor α chain [2] = molecular target: T2, IL-4 receptor α chain (UniProt P24394 26-232, limits assumed); assay: Biacore, IL-4 receptor α chain immobilized (n = 7)
T2 construct: also called IL-4Rα; IL-4-receptor alpha chain
T2 sequence (looked up): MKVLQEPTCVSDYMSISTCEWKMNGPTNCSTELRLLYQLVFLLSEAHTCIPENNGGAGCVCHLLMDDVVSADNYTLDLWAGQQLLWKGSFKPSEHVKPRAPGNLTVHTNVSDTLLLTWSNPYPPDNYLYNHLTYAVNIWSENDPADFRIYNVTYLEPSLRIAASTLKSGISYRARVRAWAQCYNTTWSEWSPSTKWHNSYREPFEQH

IL-4 receptor α chain [3] = molecular target: T2, IL-4 receptor α chain; assay: Biacore, pre- and post-nebulized samples (Aeroneb Pro), no difference between them
IL-4 receptor α chain [4] = molecular target: T2, IL-4 receptor α chain; assay: Biacore, IL-4 receptor α chain immobilized

- TF-1/IL-4 proliferation assay, EC50 of inhibition of IL-4-induced cell proliferation [1]: 0.2 to 0.3 nM
- TF-1/IL-4 proliferation assay, IC50, post nebulization (Pari LC Plus) [1]: 0.483 nM
- TF-1/IL-4 proliferation assay, IC50, pre nebulization (Pari LC Plus) [1]: 0.459 nM
- Kd (IL-4 receptor α chain [2]): 0.14 nM
- Kd (IL-4 receptor α chain [3]): ~0.1 nM
- koff (IL-4 receptor α chain [4]): 0.0017 s⁻¹
- kon (IL-4 receptor α chain [4]): 1.6e+07 M⁻¹ s⁻¹
B1: IL-4RA (mutant human IL-4 protein with the R121D/Y124D pair of substitutions) (ligand, UniProt P05112 25-153, looked up)
chain: T1 sequence (looked up) with R121D, Y124D
notes: mature; Substitution positions count on the mature 129-residue protein, not on the precursor; also called mhIL-4; IL-4 mutein
